# Experiments:
# [1] = biological target: UbcH7˜125I-ubiquitin thioester (UniProt P68036)
# [2] = biological target: HPV16 E6 protein (recombinant, full-length) (UniProt P03126)
# Sequence of HPV16 E6 protein (recombinant, full-length) (P03126 whole entry): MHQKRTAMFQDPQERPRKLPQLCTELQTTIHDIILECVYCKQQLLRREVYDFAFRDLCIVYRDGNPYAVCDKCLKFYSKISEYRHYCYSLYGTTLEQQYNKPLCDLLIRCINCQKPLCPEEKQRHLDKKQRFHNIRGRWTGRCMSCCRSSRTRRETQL
# Sequence of UbcH7˜125I-ubiquitin thioester (P68036 whole entry, looked up): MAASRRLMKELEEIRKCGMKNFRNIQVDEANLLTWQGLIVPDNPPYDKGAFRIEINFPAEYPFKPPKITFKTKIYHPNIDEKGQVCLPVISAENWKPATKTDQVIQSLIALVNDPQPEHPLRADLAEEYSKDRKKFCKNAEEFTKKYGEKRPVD
Substance,Km- [1] [µM],kcat of 125I-polyubiquitin chain formation in the presence of E6 [2] [s^-1 in its presence]
"GST-E6AP ligase (wild-type, bacterially expressed fusion protein)",0.058,–
"His6-E6AP ligase (full-length, baculovirus-expressed)",0.046,0.81±0.045

# Source: patent publication US20150210998
